Target: T1, GFP-RGS19 (UniProt P49795 1-217)
T1 construct: RGS19, regulator of G protein signaling 19; Plasmid published earlier; also called GFP-tagged RGS19 construct; source: HEK293T, transfected, in lysate
T1 sequence (looked up): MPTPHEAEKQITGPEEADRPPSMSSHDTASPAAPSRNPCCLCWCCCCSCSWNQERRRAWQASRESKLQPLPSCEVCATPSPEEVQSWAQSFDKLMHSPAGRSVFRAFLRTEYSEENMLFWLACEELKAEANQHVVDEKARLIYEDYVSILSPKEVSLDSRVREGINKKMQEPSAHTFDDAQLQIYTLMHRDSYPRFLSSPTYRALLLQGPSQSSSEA
Experiment: co-IP; HEK293T co-transfected with the GFP-tagged construct and non-tagged Gαo variants; IP of the GFP fusion with a recombinant GST-tagged nanobody against GFP; Western blot with antibodies against Gαo and GFP; blots quantified with ImageJ
Conditions: partners not purified

B1: Gαo L39_G40insV (non-tagged) (natural protein, human, UniProt P09471-1 1-354, looked up)
chain: MGCTLSAEERAALERSKAIEKNLKEDGISAAKDVKLLLLVGAGESGKSTIVKQMKIIHEDGFSGEDVKQYKPVVYSNTIQSLAAIVRAMDTLGIEYGDKERKADAKMVCDVVSRMEDTEPFSAELLSAMMRLWGDSGIQECFNRSREYQLNDSAKYYLDSLDRIGAADYQPTEQDILRTRVKTTGIVETHFTFKNLHFRLFDVGGQRSERKKWIHCFEDVTAIIFCVALSGYDQVLHEDETTNRMHESLMLFDSICNNKFFIDTSIILFLNKKDLFGEKIKKSPLTICFPEYTGPNTYEDAAAYIQAQFESKNRSPNKEIYCHMTCATDTNNIQVVFDAVTDIIIANNLRGCGLY
notes: Gαo (GNAO1) with the patient variant p.Leu39_Gly40insVal (c.116_118dup), introduced by site-directed mutagenesis into the non-tagged Gαo plasmid; De novo patient variant; also called p.Leu39_Gly40insVal; source: HEK293T, transfected (in lysate for co-IP; in cells for BRET)
percent of the binding of wild-type: < 15%

Source: PMC12781765, “Atypical GNAO1 variants in severe childhood speech disorders: clinical, genetic, and molecular insights” (Molecular Autism, 2025)
